In patent US20150098924A1 (TOPOTARGET SWITZERLAND, published 2015):

T1: Fas receptor (human, UniProt P25445 26-335)
T1 sequence (looked up): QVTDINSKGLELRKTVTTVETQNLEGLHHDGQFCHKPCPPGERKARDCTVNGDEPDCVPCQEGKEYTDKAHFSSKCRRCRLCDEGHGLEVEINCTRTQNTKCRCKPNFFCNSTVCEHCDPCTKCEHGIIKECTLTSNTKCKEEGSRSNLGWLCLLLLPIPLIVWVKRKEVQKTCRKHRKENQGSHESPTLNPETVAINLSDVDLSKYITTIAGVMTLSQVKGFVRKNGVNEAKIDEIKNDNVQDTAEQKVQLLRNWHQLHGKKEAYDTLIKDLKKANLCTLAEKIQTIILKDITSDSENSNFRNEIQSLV


Target: T1, Fas receptor
Assay: cell-based or functional assay

Molecule	IC50 (ng/ml), PESMTS survival assay, ARH-77 cells	IC50 (ng/ml), PESMTS survival assay, DOHH2 cells	IC50 (ng/ml), PESMTS survival assay, HL60 (AML-M3) cells	IC50 (ng/ml), PESMTS survival assay, Jurkat cells	IC50 (ng/ml), PESMTS survival assay, K562 cells	IC50 (ng/ml), PESMTS survival assay, NB4 (AML-M3) cells	IC50 (ng/ml), PESMTS survival assay, Namalwa (ALL-L3) cells	IC50 (ng/ml), PESMTS survival assay, RPMI-8226 cells	IC50 (ng/ml), PESMTS survival assay, Raji (ALL-L3) cells	IC50 (ng/ml), PESMTS survival assay, SC-1 cells	IC50 (ng/ml), PESMTS survival assay, U266 cells	IC50 (ng/ml), PESMTS survival assay, OPM2 cells
CH11 (antibody)	> 10000 ng/mL	> 10000 ng/mL	> 10000 ng/mL	6.58 ng/mL	> 10000 ng/mL	> 10000 ng/mL	> 10000 ng/mL	> 10000 ng/mL	15.8 ng/mL	> 10000 ng/mL	> 10000 ng/mL	–
MegaFasL (fusion polypeptide m or hACRP30:hFasL) (ligand) QLFHLQKELAELRESTSQMHTASSLEKQIGHPSPPPEKKELRKVAHLTGKSNSRSMPLEWEDTYGIVLLSGVKYKKGGLVINETGLYFVYSKVYFRGQSCNNLPLSHKVYMRNSKYPQDLVMMEGKMMSYCTTGQMWARSSYLGAVFNLTSADHLYVNVSELSLVNFEESQTFFGLYKL	10.4 ng/mL	1.17 ng/mL	213 ng/mL	0.06 ng/mL	> 10000 ng/mL	16 ng/mL	57 ng/mL	3.57 ng/mL	5.6 ng/mL	> 10000 ng/mL	6.2 ng/mL	2.19 ng/mL
